Test [1] has as its target Mouse Nerve Growth Factor (NGF) (mouse) (UniProt P01139). Put plainly: SPR; MX96 (IBIS); NGF, proNGF and proBDNF amine-coupled to a P-COOH SensEye sensor, s-sortilin flowed over as analyte; 25 mM MES pH 5.0, 150 mM NaCl, 0.005% Tween 20, 25 °C; equilibrium binding, 1:1 Langmuir model. Background: Surface plasmon resonance follows binding to a sensor surface in real time, without labels.

For test [2], the target named is Furin-resistant mouse proBrain-Derived Neurotrophic Factor (proBDNF) (mouse) (UniProt P21237). The test is described as above.
Test [3] has the same target. Description: SPR; equilibrium binding, IBIS MX96; NGF, proNGF and proBDNF amine-coupled, s-sortilin as analyte; 25 mM MES pH 5.0, 150 mM NaCl, 0.005% Tween 20, 25 °C; 1:1 Langmuir model.
The target is the same in test [4]. Description: SPR; equilibrium binding, IBIS MX96; NGF, proNGF and proBDNF amine-coupled, s-sortilin as analyte; 25 mM HEPES pH 7.4, 150 mM NaCl, 0.005% Tween 20, 25 °C; 1:1 Langmuir model.
The target of test [5] is Mouse sortilin luminal segment (s-sortilin), wild type, native glycans (mouse). Put plainly: SEC-MALS; Superdex 200 10/300 GL, 10 µl of 10 mg mL^-1 injected, 0.5 ml min^-1; 25 mM MES pH 5.0, 150 mM NaCl. A general note: SEC sorts molecules by how far they enter the pores of the column.

pKd: −log10 of the molar value.

The pKd is the Kd on a negative log10 scale, so that one unit is a factor of ten. Lower therefore signals a high Kd. By stoichiometry N is commonly meant the number of molecules, sites or subunits per partner or assembly.

Sequence of Mouse Nerve Growth Factor (NGF) (mouse) (P01139 122-241): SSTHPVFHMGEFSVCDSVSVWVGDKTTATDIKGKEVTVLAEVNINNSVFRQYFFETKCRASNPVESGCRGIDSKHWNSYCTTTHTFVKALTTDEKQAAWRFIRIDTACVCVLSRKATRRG

For “Mouse s-sortilin A464E, native glycans (domain or fragment)”, the values for the pKd in test [1] and in test [2] were 6.14 and 5.64, respectively. Take “s-sortilin A464E (dimerization interface mutant of the mouse sortilin luminal segment) (domain or fragment)”: the fold reduction of binding at pH 5.0 against pH 7.4 in test [3] stood at 4 fold. In test [4], this substance gave a pKd of 6.40. Substance “Mouse sortilin luminal segment (s-sortilin), wild type, native glycans (domain or fragment)” yielded a stoichiometry N in test [5] of 2.

Values taken from paper PMC5700061.
